According to patent publication US20050175995A1 (UNIVERSITY OF UTAH RESEARCH FOUNDATION, published 2005):

Biological target: T1, wild-type (WT) Kir2.1 subunit (human, UniProt P63252 1-427)
T1 sequence: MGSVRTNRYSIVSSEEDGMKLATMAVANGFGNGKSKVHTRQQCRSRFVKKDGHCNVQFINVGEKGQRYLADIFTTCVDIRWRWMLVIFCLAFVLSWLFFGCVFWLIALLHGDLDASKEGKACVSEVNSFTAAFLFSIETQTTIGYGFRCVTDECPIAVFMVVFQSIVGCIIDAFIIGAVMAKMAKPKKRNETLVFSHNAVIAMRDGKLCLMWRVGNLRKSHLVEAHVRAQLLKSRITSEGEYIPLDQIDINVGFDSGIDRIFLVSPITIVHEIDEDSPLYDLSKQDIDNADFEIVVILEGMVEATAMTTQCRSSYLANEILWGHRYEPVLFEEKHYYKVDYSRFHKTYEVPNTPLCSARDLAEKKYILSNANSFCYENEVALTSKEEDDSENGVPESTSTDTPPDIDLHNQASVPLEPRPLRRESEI
Test: cell-based or functional assay

B1: D71V Kir2.1 mutant subunit (other)
chain: MGSVRTNRYSIVSSEEDGMKLATMAVANGFGNGKSKVHTRQQCRSRFVKKDGHCNVQFINVGEKGQRYLAVIFTTCVDIRWRWMLVIFCLAFVLSWLFFGCVFWLIALLHGDLDASKEGKACVSEVNSFTAAFLFSIETQTTIGYGFRCVTDECPIAVFMVVFQSIVGCIIDAFIIGAVMAKMAKPKKRNETLVFSHNAVIAMRDGKLCLMWRVGNLRKSHLVEAHVRAQLLKSRITSEGEYIPLDQIDINVGFDSGIDRIFLVSPITIVHEIDEDSPLYDLSKQDIDNADFEIVVILEGMVEATAMTTQCRSSYLANEILWGHRYEPVLFEEKHYYKVDYSRFHKTYEVPNTPLCSARDLAEKKYILSNANSFCYENEVALTSKEEDDSENGVPESTSTDTPPDIDLHNQASVPLEPRPLRRESEI
- Reduction in current on co-expression of WT and D71V subunits, relative to WT current: ~0.938 fraction of WT current
